Data reported in patent EP4674868A1 (Jiangsu Hengrui Pharmaceuticals Co., Ltd., dated 2026).
Where two headings read alike, the source gives them in different places. One block for each binder: values may come before it.

What was measured:
[1] = target: T1, h-FAP-His (recombinant human fibroblast activation protein, Leu26-Asp760, His-tagged) (human, UniProt Q12884 26-760); experiment: SPR, antibody captured by anti-human IgG (Fc) on CM5 chip, h-FAP-His as analyte
T1 construct: range 26-760; Bought protein with a His tag; also called human FAP-His protein; His-tagged FAP recombinant protein

[2] = target: T2, human 4-1BB on the surface of HEK293 cells (HEK293-Hu4-1BB) (human, UniProt Q07011 24-255); experiment: FACS, HEK293-Hu4-1BB cells
T2 construct: whole, on cells; also called CD137; cell strain highly expressing human 4-1BB

[3] = target: T2, human 4-1BB on the surface of HEK293 …; experiment: cell-based or functional assay
[4] = target: T3, human CD40 on the surface of HEK293 cells (HEK293-HuCD40) (human, UniProt P25942 21-277); experiment: cell-based or functional assay
[5] = target: T4, human FAP on the surface of CHO-K1 cells (CHO-K1-HuFAP) (human, UniProt Q12884 1-760); experiment: FACS, CHO-K1-HuFAP cells
T4 construct: whole, on cells; also called CHO cell line overexpressing human FAP; FAP on the surface of CHO-K1-HuFAP cells

[6] = target: T3, human CD40 on the surface of HEK293 …; experiment: FACS, HEK293-HuCD40 cells
[7] = target: T3, human CD40 on the surface of HEK293 …; experiment: FACS, HEK293-HuCD40 cells; remark: listed apart in the source
[8] = target: T3, human CD40 on the surface of HEK293 …; experiment: cell-based or functional assay; remark: listed apart in the source
[9] = target: T2, human 4-1BB on the surface of HEK293 …; experiment: FACS, HEK293-Hu4-1BB cells; remark: listed apart in the source
[10] = target: T4, human FAP on the surface of CHO-K1 …; experiment: FACS, CHO-K1-HuFAP cells; remark: listed apart in the source
[11] = target: T2, human 4-1BB on the surface of HEK293 …; experiment: cell-based or functional assay; remark: listed apart in the source
[12] = target: T2, human 4-1BB on the surface of HEK293 …; experiment: FACS, HEK293-Hu4-1BB cells; remark: listed apart in the source
[13] = target: T2, human 4-1BB on the surface of HEK293 …; experiment: cell-based or functional assay; remark: listed apart in the source
[14] = target: T2, human 4-1BB on the surface of HEK293 …; experiment: FACS, HEK293-Hu4-1BB cells; remark: listed apart in the source

B2: BNT312 (CD40/4-1BB bispecific antibody molecule, control) (bispecific antibody, human IgG1, kappa)
heavy 1: EVQLVQSGAEVKKPGASVKVSCKTSGYTFTEYIMHWVRQAPGQGLEWMGGIIPNNGGTSYNQKFQGRVTMTVDKSTSTGYMELSSLRSEDTAVYYCTRREVYGRNYYALDYWGQGTLVTVSSASTKGPSVFPLAPSSKSTSGGTAALGCLVKDYFPEPVTVSWNSGALTSGVHTFPAVLQSSGLYSLSSVVTVPSSSLGTQTYICNVNHKPSNTKVDKRVEPKSCDKTHTCPPCPAPEFEGGPSVFLFPPKPKDTLMISRTPEVTCVVVAVSHEDPEVKFNWYVDGVEVHNAKTKPREEQYNSTYRVVSVLTVLHQDWLNGKEYKCKVSNKALPAPIEKTISKAKGQPREPQVYTLPPSREEMTKNQVSLTCLVKGFYPSDIAVEWESNGQPENNYKTTPPVLDSDGSFLLYSKLTVDKSRWQQGNVFSCSVMHEALHNHYTQKSLSLSPGK
light 1: not shown
heavy 2: EVQLVESGGGLVQPGRSLRLSCTASGFSLNDYWMSWVRQAPGKGLEWVGYIDVGGSLYYAASVKGRFTISRDDSKSIAYLQMNSLKTEDTAVYYCARGGLTYGFDLWGQGTLVTVSSASTKGPSVFPLAPSSKSTSGGTAALGCLVKDYFPEPVTVSWNSGALTSGVHTFPAVLQSSGLYSLSSVVTVPSSSLGTQTYICNVNHKPSNTKVDKRVEPKSCDKTHTCPPCPAPEFEGGPSVFLFPPKPKDTLMISRTPEVTCVVVAVSHEDPEVKFNWYVDGVEVHNAKTKPREEQYNSTYRVVSVLTVLHQDWLNGKEYKCKVSNKALPAPIEKTISKAKGQPREPQVYTLPPSREEMTKNQVSLTCLVKGFYPSDIAVEWESNGQPENNYKTTPPVLDSDGSFFLYSRLTVDKSRWQQGNVFSCSVMHEALHNHYTQKSLSLSPGK
light 2: DIVMTQSPSSLSASVGDRVTITCQASEDISSYLAWYQQKPGKAPKRLIYGASDLASGVPSRFSASGSGTDYTFTISSLQPEDIATYYCHYYATISGLGVAFGGGTKVEIKRTVAAPSVFIFPPSDEQLKSGTASVVCLLNNFYPREAKVQWKVDNALQSGNSQESVTEQDSKDSTYSLSSTLTLSKADYEKHKVYACEVTHQGLSSPVTKSFNRGEC
EC50 [2]: 0.77 nM
Maximum fluorescence value [2]: 29300
4-1BB/NF-κB luciferase reporter, CD40-crosslinked, EC50 [3]: 0.41 nM
4-1BB/NF-κB luciferase reporter, CD40-crosslinked, Fold change in Emax [3]: 3.56 fold
4-1BB/NF-κB luciferase reporter, FAP-crosslinked, Fold change in Emax [3]: 1.01 fold
4-1BB/NF-κB luciferase reporter, uncrosslinked, Fold change in Emax [3]: 1.1 fold
CD40/NF-κB reporter (HEK-Blue CD40L), 4-1BB-crosslinked, EC50 [4]: 0.69 nM
CD40/NF-κB reporter (HEK-Blue CD40L), 4-1BB-crosslinked, Fold change in Emax [4]: 9.51 fold
CD40/NF-κB reporter (HEK-Blue CD40L), FAP-crosslinked, Fold change in Emax [4]: 6.27 fold
CD40/NF-κB reporter (HEK-Blue CD40L), uncrosslinked, Fold change in Emax [4]: 7.66 fold
Maximum fluorescence value [5]: 77
EC50 [6]: 6.78 nM
Maximum fluorescence value [6]: 108000
EC50 [7]: 2.77 nM
Maximum fluorescence value [7]: 109000
CD40/NF-κB reporter (HEK-Blue CD40L), 4-1BB-crosslinked, EC50 [8]: 1.03 nM
CD40/NF-κB reporter (HEK-Blue CD40L), 4-1BB-crosslinked, Fold change in Emax [8]: 5.97 fold
CD40/NF-κB reporter (HEK-Blue CD40L), FAP-crosslinked, Fold change in Emax [8]: 5.41 fold
CD40/NF-κB reporter (HEK-Blue CD40L), uncrosslinked, Fold change in Emax [8]: 5.06 fold
EC50 [9]: 2.17 nM
Maximum fluorescence value [9]: 25700
Maximum fluorescence value [10]: 449
4-1BB/NF-κB luciferase reporter, CD40-crosslinked, EC50 [11]: 1.65 nM
4-1BB/NF-κB luciferase reporter, CD40-crosslinked, Fold change in Emax [11]: 4.76 fold
4-1BB/NF-κB luciferase reporter, FAP-crosslinked, EC50 [11]: 0.293 nM
4-1BB/NF-κB luciferase reporter, FAP-crosslinked, Fold change in Emax [11]: 1.19 fold
4-1BB/NF-κB luciferase reporter, uncrosslinked, Fold change in Emax [11]: 1.09 fold

B3: MP0310 (FAP/4-1BB bispecific antibody molecule, control) (other)
chain: GSDLGKKLLEAARAGQDDEVRELLKAGADVNAKDYFSHTPLHLAARNGHLKIVEVLLKAGADVNAKDFAGKTPLHLAAADGHLEIVEVLLKAGADVNAQDIFGKTPADIAADAGHEDIAEVLQKAAGSPTPTPTTPTPTPTTPTPTPTGSDLGKKLLEAARAGQDDEVRELLKAGADVNAKDVLGWTPLHLAAFEGHLEIVEVLLKAGADVNAKDKKGWTPLQLAARTGHLEIVEVLLKAGADVNAKDHIGATPLHLAAWQGHPEIVEVLLKAGADVNAQDKSGKTPADLAADAGHEDIAEVLQKAAGSPTPTPTTPTPTPTTPTPTPTGSDLGQKLLKAAQEGQDDEVRELLKAGADVNAKDLRGITPLHVAAWQGHLEIVEVLLKAGADVNAKDSKGETPLHLAAFRGHLEIVEVLLKAGADVNAQDQQGETPADLAALAGHVDIAEVLQKAAGSPTPTPTTPTPTPTTPTPTPTGSDLGQKLLKAAQEGQDDEVRELLKAGADVNAKDLRGITPLHVAAWQGHLEIVEVLLKAGADVNAKDSKGETPLHLAAFRGHLEIVEVLLKAGADVNAQDQQGETPADLAALAGHVDIAEVLQKAAGSPTPTPTTPTPTPTTPTPTPTGSDLGKKLLEAARAGQDDEVRELLKAGADVNAKDYFSHTPLHLAARNGHLKIVEVLLKAGADVNAKDFAGKTPLHLAAADGHLEIVEVLLKAGADVNAQDIFGKTPADIAADAGHEDIAEVLQKAAHHHHHH
4-1BB/NF-κB luciferase reporter, CD40-crosslinked, Fold change in Emax [3]: 1.11 fold
4-1BB/NF-κB luciferase reporter, FAP-crosslinked, EC50 [3]: 0.02 nM
4-1BB/NF-κB luciferase reporter, FAP-crosslinked, Fold change in Emax [3]: 13.8 fold
4-1BB/NF-κB luciferase reporter, uncrosslinked, Fold change in Emax [3]: 1.01 fold
CD40/NF-κB reporter (HEK-Blue CD40L), 4-1BB-crosslinked, Fold change in Emax [4]: 1.01 fold
CD40/NF-κB reporter (HEK-Blue CD40L), FAP-crosslinked, Fold change in Emax [4]: 0.99 fold
CD40/NF-κB reporter (HEK-Blue CD40L), uncrosslinked, Fold change in Emax [4]: 1.03 fold

B5: humanized anti-4-1BB nanobody C5_V1 linked to human IgG1-Fc (Fc fusion)
chain: QVQLVESGGGLVQPGGSLRLSCSASGFTFSSYAMSWVRQAPGKGLEWVSDINSGGESTFYEDSVKGRFTISRDNAKNTLYLQMNSLRAEDTAVYYCARHPLTFTIATMNDYDYWGQGTLVTVSSEPKSADKTHTCPPCPAPELLGGPSVFLFPPKPKDTLMISRTPEVTCVVVDVEHEDPEVKFNWYVDGVEVHNAKTKPREEQYNSTYRVVSVLTVLHQDWLNGKEYKCKVSSKAFPAPIEKTISKAKGQPREPQVYTLPPSRDELTKNQVSLTCLVKGFYPSDIAVEWESNGQPENNYKTTPPVLDSDGSFFLYSKLTVDKSRWQQGNVFSCSVMHEALHNHYTQKSLSLSPGK
Activation of HEK293-4-1BB cells (NF-κB reporter), Fold change in Emax [13]: 1.14 fold
FcγRIIb-mediated activation of HEK293-4-1BB cells (NF-κB reporter), Fold change in Emax [13]: 2.28 fold
EC50 [14]: 3.79 nM
Maximum fluorescence value [14]: 1040

B6: humanized anti-4-1BB nanobody C5_V3 linked to human IgG1-Fc (Fc fusion)
chain: QVQLVESGGGLVQPGGSLRLSCSASGFTFSSYAMSWVRQAPGKGLEWVSDINSGGESTFYEDSVKGRFTISRDNAKNTLYLQMNSLKPEDTAVYYCAKHPLTFTIATMNDYDYWGQGTLVTVSSEPKSADKTHTCPPCPAPELLGGPSVFLFPPKPKDTLMISRTPEVTCVVVDVEHEDPEVKFNWYVDGVEVHNAKTKPREEQYNSTYRVVSVLTVLHQDWLNGKEYKCKVSSKAFPAPIEKTISKAKGQPREPQVYTLPPSRDELTKNQVSLTCLVKGFYPSDIAVEWESNGQPENNYKTTPPVLDSDGSFFLYSKLTVDKSRWQQGNVFSCSVMHEALHNHYTQKSLSLSPGK
EC50 [14]: 1.65 nM

Other lines, results leading:

Kd [1]: 1.31 nM
Ratio of KD of 28H1 to KD of test antibody [1]: 1
Ratio of Kd of 28H1 to Kd of test antibody [1]: 1
koff [1]: 0.000255 s⁻¹
kon [1]: 195000 M⁻¹ s⁻¹
B1: control anti-FAP antibody 28H1 (antibody, V domains shown)
VH: EVQLLESGGGLVQPGGSLRLSCAASGFTFSSHAMSWVRQAPGKGLEWVSAIWASGEQYYADSVKGRFTISRDNSKNTLYLQMNSLRAEDTAVYYCAKGWLGNFDYWGQGTLVTVSS
VL: EIVLTQSPGTLSLSPGERATLSCRASQSVSRSYLAWYQQKPGQAPRLLIIGASTRATGIPDRFSGSGSGTDFTLTISRLEPEDFAVYYCQQGQVIPPTFGQGTKVEIK

EC50 [12]: 0.7 nM
Maximum fluorescence value [12]: 51700
B4: C5_V2-YTIQ linked to human IgG1-Fc (Fc fusion)
chain: QVQLVESGGGLVQPGGSLRLSCSASGFTFSSYAMSWVRQAPGKGLEWVSDINSGGQSTFYADSVKGRFTISRDNAKNTLYLQMNSLRAEDTAVYYCAKHPLTYTIATMNDYDYWGQGTQVTVSSEPKSADKTHTCPPCPAPELLGGPSVFLFPPKPKDTLMISRTPEVTCVVVDVEHEDPEVKFNWYVDGVEVHNAKTKPREEQYNSTYRVVSVLTVLHQDWLNGKEYKCKVSSKAFPAPIEKTISKAKGQPREPQVYTLPPSRDELTKNQVSLTCLVKGFYPSDIAVEWESNGQPENNYKTTPPVLDSDGSFFLYSKLTVDKSRWQQGNVFSCSVMHEALHNHYTQKSLSLSPGK
